The source of these data is the DeepSol protein solubility set.

This data set is described as follows: soluble on expression in E. coli; label from the status in PepcDB or PDB records.
“MNIKQFNEHITSLFGEHLHKYGDDEYGFTHISKDEFHKIGYTTNLTLETIEEAYRNGVDMIVTHHAPWSFLFGMEEACIEKLKQYEMNHFWVHLPLDFVKFGTCTSLFNGIGIDTILEYSTYEEEELPGIGEYKEAIPFSNLVGKLEERMEEKVKSWRNHDKPVKRIAILTGAGNNTNLIERALEKGCDTYITGEKTLYTVQHAKFKGINLIVGSHTFTEVFGVESLAHKLKERDNSIEITRLNEEHLELEHHHHHH”: the “soluble on expression in E. coli” value is “not soluble”.

Turning to “MVARISVGKNLYGALAYNQNKVDEGGAKVLSAHLLRYPEDGRFRPDESVRQFLEWMPNHYRTEKPVIHISLNPHPDDVLTDGQLAEIGREYMQRLGYGNQPYLVFKHEDIGRHHIHIVSLRVDSEGRKVSDKFEYRRSKEITELLEQKYGLHPAEGRKKGEEWQLKPVDVAKGDIKRQIACTLKPLLELYSFRTMGELRALLSLYNIGVEEVKGEIGGRTYHGILYTALDGNGETAATPIKSSRLGRTAGAQQLDRKMRESAARIKSAPCRERLRPLVADALRQSVDERDFRDRLAKEQIDLVLRRNGTDRIYGVTFIDHRSRTVLNGSRLGKEFSANMLNGHFQEQPPNSLSPLLPPVPSAVASGNGEKIPGGLLSDMEPELNYVPRYPKLLKPDKKKRRRRYGRQD”, the “soluble on expression in E. coli” value was “not soluble”.

“MKLTTLGSWGAYPYQDAGTTSYLVTGHDGFQLLMDAGSRALNELEKEISPLDLDAVIISHYHPDHVADLGVLRHYFQLYPKHLWQPKVLPIYGHDEDRNEFAKLSIPDVSEGRAYDVTGVEQIGSFDITFLKTVHPVVCYAFRIVERATGQVLVFTGDSGYFEGLADFAKEADLFLADVYLYEGNENHMAHLTSKEAGLMASQAGVKKLVLTHMPPVPPDGINSKNHLEVLRQETQAYAGNIPVDLALPHKSWNLGSLS”: the “soluble on expression in E. coli” value is given as “not soluble”.

Regarding “MSLKGIVFGSGQIGSSVALNLVDGMDVTVADRDPTNLRKIQDNIGSRVSVIQVDALRDDIKHIISDYDIVVSALPGSVGFQFAKSIAPFGVRMIDISYYEDDVFLLDDVAKKSSSVIVPDIGFAPGISNVLVGHFSYELEDVKDVHIYVGGIPEKRIGGLDYVITWSVEGLLDEYTRPVHIVQNGSITQVEPLSGLEKINIQKYTDLEAFYTDGLRTLGKTIRASGSMWEKTVRYSGHAEKIRLLKDLGFFSRKKVKVGNSEIAPFDFTAEIFRNNLSMSGVKDVSLMYVKVTGTRNGDIVKHEASMVAPYDEKRKRSSMANVTSVPASATADFLSKNEIGKYGVVAPEILGKDENFYKQFINYLGQYGIIISEGHHHHHH”, the “soluble on expression in E. coli” value is reported as “not soluble”.

In the case of “AHHHHHHGSETEEIEAPKKKVPLAMVTIRPAKLFDIPYIMRIEQMSFKEAYPRGLFLTFLEANPDTFLVAEYNGKIVGYVMGYLRPDMEGHIMSIAVHPDYRGNGIGKALMIAVIKKLFEKGARWIGLEVRVSNYRAINLYKKLGFKIVKRIISYYSDGEDAYYMILRPEDFERVILS”, the “soluble on expression in E. coli” value is reported as “not soluble”.

Turning to “MGSDKIHHHHHHMIDPESLEALEAVVDAGSLSAAAGQLNKAVSAVGYHLRRLEEQIGVPLLDRSGYRLALTPEGKSVLAEGRPILERLRALGTFAERYHGGWEHQLRIVYDGALPAEVVIGAINALVEAGAPTHIELNVAYLGAVPFEFDRKQADVMIATAWEPRLDLIGHRLATLGFSLCCAAGHPLTMRTNVSLEELQRETELIIPGLAEDRSFDARHFRSRRILKVSDFNTKLIAIRRGLGFGWLPDYLASDLVRKGNLARVRLEGGNSYELQPVFALHRGAAPGRARQMLLDMLLLATWDTYVKPE”, the “soluble on expression in E. coli” value is recorded as “not soluble”.

For the sequence “GSHMEEAKGPVKHVLLASFKDGVSPEKIEELIKGYANLVNLIEPMKAFHWGKDVSIENLHQGYTHIFESTFESKEAVAEYIAHPAHVEFATIFLGSLDKVLVIDYKPTSVSL”, the “soluble on expression in E. coli” value is “soluble”.

On to “MGSDKIHHHHHHMATNTGHSNPKEALTFMNAPQLDIHQPRIAAFFDLDKTIIATSSALAYGREFMHSGLITPAEALQMSMAKATYMFSGYSSEQMDHTKNQLAHLITGWSEEQVREIANDTLQSVVAPAIYAEARDLIHMHQETGHDVVIISASARILVEAIAAELGVDQVVATELTVVDGKFTGEVPFYCKGAAKAQAILDLTDKRGYQLDRSFAYSDSITDLPMLEAVGNPRAVNPDRALKKVALDRDWEIHTFKNPVALFSKPTKRDLQISTGVAAGVAAVVGSVMWWKSLNGRSDRLRLSCTRDPGTQM”, for which the “soluble on expression in E. coli” value was “not soluble”.

In the case of “MSLNSNTEKRIALISVHGDPAIEIGKEEAGGQNVYVREVGKALAQLGWQVDMFSRKVSPEQELIVHHSPLCRTIRLTAGPEEFVPRDNGFKYLPEFVQQLLRFQKENNVNYPLVHTNYWLSSWVGMQLKAIQGSKQVHTYHSLGAVKYKSIDTIPLVATKRLSVEKQVLETAERIVATSPQEQQHMRSLVSTKGYIDIVPCGTDIHRFGSIARQAARAELGIDQEAKVVLYVGRFDQRKGIETLVRAMNESQLRDTNKLKLIIGGGSTPGNSDGRERDRIEAIVQELGMTEMTSFPGRLSQDVLPAYYAAADVCVVPSHYEPFGLVAIEAMASGTPVVASDVGGLQFTVVSEKTGLLVPPKDIAAFNIAIDRILMNPQWRDELGLAARKHVTHKFGWEGVASQLDGIYTQLLTQQVKEPALVTKEGHHHHHH”, the “soluble on expression in E. coli” value is listed as “soluble”.

“MTYFTSWDEFAKAAERLHSANPEKCRFVTKYNHTKGQLVLKLTDDVVCLQYSTNQLQDVKKLEKLSSTLLRGIVTQ”: the “soluble on expression in E. coli” value was “soluble”.

Regarding “MQQVFKKPVSLKDVQTHFCPGCHHGTFHRLVAEAMDEFGVQKKTIGVASVGCSVFLYGYFDIDVVEAPHGRAPAVATGVKRARPDAFVFTYQGDGDLAAIGTSEIIHAANRGEDITVIFVNNTTYGMTGGQMAPTTLVGQRTSTSPYGRKNEKDGSPIRMAELLAQLEGVAFSARVAVNNPKNLMDAKRQIKKAFRYQAEGKGFSFIEALSSCPTNWGMDALAANERVGTEMCA”, the “soluble on expression in E. coli” value is “not soluble”.

For the sequence “MKIIDCRNMACPAPVVTTKRALEEAGGETVQVLVDPGAPRENVIRFAENRGFAVSEVEADNGFALTITSPGSAPVEPVRTVAGKGGKTVMLVASDRLGDGPEELGRLLMKNFIITLLDLAELPDRMLFVNTGVLLTTEGSEVLEALQSLGNRGVEVLSCGVCLDFFHRKEKLVAGSVTNMFTIAESLLGAGSVVRLLEHHHHHH”, the “soluble on expression in E. coli” value was “soluble”.

“MSSIGTGYDLAASTFSPDGRIFQVEYAQKAVDNAGTMIAIRGKNGVVVVADKLISSKLYTDNANPRMFNVNDNVGVAVAGNYPDGFALKNYAYGEAMKWLKDYREPMPIQNIANSVAEYIHIHTLGISRPFGAGAFFMSWNKQTGGRLFLVEPSGLNYEYKAWAVGKHRQAAKAEIEKLKIEELDVNQLVKEAARIIMVVRDENKDKNVQIEMGWVGEQTNGKYEEVPSEVVTAAEEWAIAKLDEDDMDD”: the “soluble on expression in E. coli” value is “not soluble”.

With “MVNFKDKSMPTAIEKALDFIGGMNTSASVPHSMDESTAKGILKYLHDLGVPVSPEVVVARGEQEGWNPEFTKKVAGWAEKVASGNRILIKNPEYFSTYMQEQLKELVLEHHHHHH”, the “soluble on expression in E. coli” value is reported as “soluble”.

Regarding “VIVYGDYNNDGNVDALDFAGLKKYIMAADHAYVKNLDVNLDNEVNSTDLAILKKYLLGMVSKLPSN”, the “soluble on expression in E. coli” value is “soluble”.

Regarding “MVKVTAACIIIGDEVLNGKVVDTNSTFFAKYCFDHGIQLKEIATIGDDETQIVDTVRRLVKNYDFIISTGGIGPTHDDITYECMAKSFNLPCELDEECKERMRHKSDPEARLDADALKAHYQMATMPKGTNVKNYYVCDDLWVPICSISHKMYILPGIPQLFARMLKAFTPTLKKIYNLDKDPREYVRYFVRTHLTESQISKELKLIQDESTKVSEAIKIGSYPHFGMGFNTVSILGEKKDDSYLKSIVNRVVNNLEGEVISSELENKFSNQES”, the “soluble on expression in E. coli” value is “not soluble”.

Take “MEWHFSLKEPHVLLFLPFEKYALPYPDPSQSWLSFGLTEIPVPEWTKNLEIITPWRPDFLKFANAQFRCSPEINQTCTHDGALLQLSKYRGFNQNCFLDLLERVKPGGWIIIGGNKTSGADSMMKWVKKIVPITNKFSKNHGLVFWIQVPQQIEKQNTAQLRSPPLTFENKFQTTSGMFSHGRIDPGSAVLASHMCKTISGKTADFGAGWGFLSHAALERSEKLTALDLYEADYNALKAAKQHLKHITTSLPIHFYWHDLVHEPITNLYDTIISNPPFHTQQTTDVSLGQHFIINAAKYLKPGGNLLLVANRHLPYETLLKRLFRTVLIYEKAHGFKVIEAYR”: the “soluble on expression in E. coli” value was “not soluble”.

For “MYFIAGMFDGKEKVNREQPPMPTTDGVEYPRAASWAAGNCANVLNDDKGKQLFRVFLFQSLAEENLAFLEAMEKLKKMKISDEKVAYAKEILETYQGSINLSSSSMKSLRNAVASETLDMEEFAPAIKEVRRLLENDQFPRFRRSELYLEYLEELLPRSYAEKWAQSFEGLLGNHVGRHHFRIFLRSIHAEENLRFWEAVVEFRSSRHKANAMNNLGKVILSTYLAEGTTNEVFLPFGVRQVIERRIQDNQIDITLFDEAIKHVEQVLRNDPYVRFLQSSQYIDLLSKLK”, the “soluble on expression in E. coli” value is given as “not soluble”.

On to “MGSDKIHHHHHHMIMLEKPTCRPNNPNFSSGPCSKRPGWTLEVLKNALVGRSHRSREAALRLAEIVDLTREVLEVPSDYRIGIVPASDTGAVEMSLWSLLGERGVDMAAWESFGSGWITDVVEKLKLSDVRRFEAPYGELPDLTQMDFDRDVVFTWNGTTSGVRIPNADFIPERRAGLTICDATSAAFAQNLDFSKLDVVTFSWQKVLGGEAAHGMLILSPRAVERLESYVPTWPMPQIFCLTKDGKLNENIFKGVTINTPSLLCIEDFLDALKWAKAQGGLHALMARVEKNFAVLDAFVRKTPWLEYLAKDPQVRSNTSVCLDIVDPVVTALDTEKRVSFIKAIVNRLDEEEAAYDIGSYRDAPPGLRIWTGITIEASDLEILTSWLEWAFQVEKAQL”, for which the “soluble on expression in E. coli” value is listed as “not soluble”.

With “GPGSMALATTGYPALASSHSFANASTSVMTASAMAVVRRAATTTGASAATTTPQVVHYSKLGMDGFTDIKFNTAADELLELVETKVDALDSAAVEDVSCNGGVLTLETTDRGTFILNKQAPNVQLWLSSPISGPHHYDMITVTQGGHEKVSWKSDHDGHDLVKKLEEELTEVLGTDFKV”, the “soluble on expression in E. coli” value is recorded as “soluble”.

On to MTFEMLYSKIHRATITDANLNYIG, for which the “soluble on expression in E. coli” value is given as “soluble”.

For “MSLRSYLGSISTSKTEVNSMKMHVLKLLIPTMALLLSACASLPPELGNPDDKSVVTQYSAWLERDPATQSPVRMGGVVANISNQKDRTRVELVNLPIDSAGRPNIHQEPQGRFVAYVPGFLDPITYGEGRLLTLYGTTAPSEQGKVGDYEHTYPVMNAQGYHLWRVEERVEVDDIGPYMFPCRGFYCWPRTMPERDGKIIQEVKEGGSHHHHHH”, the “soluble on expression in E. coli” value is “soluble”.

With “SLPLQQYRDFIDNQMLLLVAQRDRASRIFPHLYLGSEWNAANLEELQRNRVTHILNMAREIDNFYPERFTYHNVRLWDEESAQLLPHWKETHRFIEAARAQGTHVLVHCKMGVSRSAATVLAYAMKQYECSLEQALRHVQELRPIARPNPGFLRQLQIYQGILTART”, the “soluble on expression in E. coli” value was “not soluble”.
